{
  "source": "paper PMC10443974",
  "data": [
    {"molecular_target": "unmodified, wild-type (WT) human FcRn (neonatal Fc receptor) (human) (UniProt P55899)", "sequence (P55899 24-297, chain 1 of 2)": "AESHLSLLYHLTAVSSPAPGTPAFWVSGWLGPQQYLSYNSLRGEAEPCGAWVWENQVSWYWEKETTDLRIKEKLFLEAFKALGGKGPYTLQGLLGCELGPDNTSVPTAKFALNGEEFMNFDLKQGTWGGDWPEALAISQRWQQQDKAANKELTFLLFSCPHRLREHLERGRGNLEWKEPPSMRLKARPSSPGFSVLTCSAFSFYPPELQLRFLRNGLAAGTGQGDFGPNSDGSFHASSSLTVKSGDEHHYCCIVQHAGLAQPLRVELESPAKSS", "sequence (P61769 21-119, chain 2 of 2, further chain)": "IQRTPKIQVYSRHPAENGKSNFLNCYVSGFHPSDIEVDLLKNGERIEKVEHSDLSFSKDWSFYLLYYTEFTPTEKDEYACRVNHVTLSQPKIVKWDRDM", "assay": "FcRn affinity chromatography with pH monitor", "units": {"FcRn dissociation pH (mean)": "pH"}, "values": [
      {"substance": "briakinumab (antibody)", "FcRn dissociation pH (mean)": 7.81},
      {"substance": "NIST mAb (reference material RM8671) (antibody)", "FcRn dissociation pH (mean)": 7.22},
      {"substance": "rituximab (antibody)", "FcRn dissociation pH (mean)": 7.43},
      {"substance": "adalimumab (antibody)", "FcRn dissociation pH (mean)": 7.39},
      {"substance": "durvalumab (antibody)", "FcRn dissociation pH (mean)": 7.28},
      {"substance": "cetuximab (antibody)", "FcRn dissociation pH (mean)": 7.25},
      {"substance": "margetuximab (antibody)", "FcRn dissociation pH (mean)": 7.34},
      {"substance": "cusatuzumab (antibody)", "FcRn dissociation pH (mean)": 7.12}
    ]}
  ]
}
